{"source": "patent US7265267", "about": "(CROPDESIGN N V, dated 2007)", "binders": {"B1": {"name": "GAL4 activation domain alone (pGAD424) (other, UniProt P04386 768-881, looked up)", "chain": "ANFNQSGNIADSSLSFTFTNSSNGPNLITTQTNSQALSQPIASSNVHDNFMNNEITASKIDDGNNSKPLSPGWTDQTAYNAFGITTGMFNTTTMDDVYNYLFDDEDTPPNPKKE", "notes": "Negative control prey in the two-hybrid retransformation"}, "B2": {"name": "GAL4 activation domain-FL39 fusion (pGADFL39) (other, not shown: large carriers)", "chain": "MAAVRRRERDVVEENGVTTTTVKRRKMEEEVDLVESRIILSPCVQATNRGGIVARNSAGASETSVVIVRRRDSPPVEEQCQIEEEDSSVSCCSTSEEKSKRRIEFVDLEENNGDDRETETSWIYDDLNKSEESMNMDSSSVAVEDVESRRRLRKSLHETVKEAELEDFFQVAEKDLRNKLLECSMKYNFDFEKDEPLGGGRYEWVKLNP", "notes": "also called ICK2; CKI2"}, "B3": {"name": "GAL4 activation domain-LDV66 fusion (pGADLDV66) (other, not shown: large carriers)", "chain": "VNSVPVAQSSNEDECFDNFVSVQVSCGENSLGFESRHSTRESTPCNFVEDMEIMVTPGSSTRSMCRATKEYTREQDNVIPTTSEMEEFFAYAEQQQQRLFMEKYNFDIVNDIPLSGRYEWVQVKP", "notes": "FL66 = ICK3"}, "B4": {"name": "GAL4 activation domain-LDV39 fusion (pGADLDV39) (other, not shown: large carriers)", "chain": "RRDSPPVEEQCQIEEEDSSVSCCSTSEEKSKRRIEFVDLEENNGDDRETETSWIYDDLNKSEESMNMDSSSVAVEDVESRRRLRKSLHETVKEAELEDFFQVAEKDLRNKLLECSMKYNFDFEKDEPLGGGRYEWVKLNP", "notes": "FL39 = ICK2 = CKI2"}, "B5": {"name": "Purified recombinant FL66 protein (E. coli, FL66pET21d), starting at methionine 11 (other)", "chain": "MEVSKATAPSPGVRTRAAKTLALKRLNSSAADSALPNDSSCYLQLRSRRLEKPSSLIEPKQPPRVHRSGIKESGSRSRVDSVNSVPVAQSSNEDECFDNFVSVQVSCGENSLGFESRHSTRESTPCNFVEDMEIMVTPGSSTRSMCRATKEYTREQDNVIPTTSEMEEFFAYAEQQQQRLFMEKYNFDIVNDIPLSGRYEWVQVKP", "notes": "also called FL66-Sepharose"}, "B6": {"name": "GAL4 activation domain-FL66 fusion (pGADFL66), FL66 starting at methionine 11 (other, not shown: large carriers)", "chain": "B5 chain", "notes": "the FL66 clone may not be full length; also called ICK3"}, "B7": {"name": "GAL4 activation domain-LDV159 fusion (pGADLDV159) (other, Arabidopsis thaliana, UniProt Q67Y93 1-191, looked up, not shown: large carriers)", "chain": "MVRKYRKAKGIVEAGVSSTYMQLRSRRIVYVRSEKSSSVSVVGDNGVSSSCSGSNEYKKKELIHLEEEDKDGDTETSTYRRGTKRKLFENLREEEKEELSKSMENYSSEFESAVKESLDCCCSGRKTMEETVTAEEEEKAKLMTEMPTESEIEDFFVEAEKQLKEKFKKKYNFDFEKEKPLEGRYEWVKLE", "notes": "also called ICK1"}}, "key": {"[1]": {"target": "T1, GAL4 DNA-binding domain-CDC2aAt fusion (pGBTCDC2A bait) (Arabidopsis thaliana, UniProt P04386 1-147; P24100 1-294)", "T1 construct": "Yeast two-hybrid bait; whole CDC2aAt coding region amplified from cDNA and cloned in the EcoRI site of pGBT9", "experiment": "yeast two-hybrid control, growth without histidine", "text": "(§1) The LDV159 clone was identical to ICK1 (GenBank accession number U94772 as published by Wang in Nature 386 (1997), 451–452). The two other clones were novel and encoded proteins only distantly related to ICK1 (Table 1). The LDV39 gene was 622 bp long, consisting of 423 bp coding region and 199 bp 3' UTR (excluding the poly-A tail). The LDV66 gene was 611 bp long, consisting of 379 bp coding region and 232 bp 3' UTR (excluding the poly-A tail). The specificity of the interaction between LDV39, LDV66, and LDV159 was verified by the retransformation of yeast with pGBTCDC2A and pGADLDV39/pGADLDV66/pGADLDV159. As controls, pGBTCDC2A was cotransformed with a vector containing only the GAL4 activation domain (pGAD424); and the pGADLDV39/pGADLDV66/pGADLDV159 vectors were cotransformed with a plasmid containing only the GAL4 DNA binding domain (pGBT9). Transformants were plated on medium with or without histidine. Only transformants containing both pGBTCDC2A and pGADLDV39, pGADLDV66, ot pGADLDV159 were able to grow in the absence of histidine."}, "[2]": {"target": "T1, GAL4 DNA-binding domain-CDC2aAt fusion …", "experiment": "yeast two-hybrid, growth without histidine", "protocol": "(§2) The pGBTCDC2B vector encoding a fusion protein between the C-terminus of the GAL4 DNA-binding domain and CDC2bAt was constructed by cloning the full length coding region of CDC2bAt into the pGBT9 vector. pGBTCDC2B was transformed with pGADLDV66/pGADLDV39/pGADLDV159 in the HF7c yeast and cotransformants were plated on medium with or without histidine. As control, pGBTCDC2A was transformed with pGADLDV66/pGADLDV39/pGADLDV159. In contrast to the transformants containing the pGBTCDC2A vector were cotransformants containing the pGBTCDC2B vector unable to grow in the absence of histidine."}, "[3]": {"target": "GAL4 DNA-binding domain-CDC2bAt fusion (pGBTCDC2B) (Arabidopsis thaliana, UniProt P04386 1-147; P25859 1-309)", "experiment": "yeast two-hybrid, growth without histidine", "protocol": "as §2"}, "[4]": {"target": "T2, GAL4 DNA binding domain alone (pGBT9) (UniProt P04386 1-147)", "T2 construct": "Negative control bait in the two-hybrid retransformation", "experiment": "yeast two-hybrid control, growth without histidine", "text": "as §1"}, "[5]": {"target": "T3, CDC2bAt protein in protein extract of A. thaliana Col-O cell suspension culture (Arabidopsis thaliana, UniProt P25859 1-309)", "T3 construct": "Endogenous protein in a crude extract", "T3 sequence (looked up)": "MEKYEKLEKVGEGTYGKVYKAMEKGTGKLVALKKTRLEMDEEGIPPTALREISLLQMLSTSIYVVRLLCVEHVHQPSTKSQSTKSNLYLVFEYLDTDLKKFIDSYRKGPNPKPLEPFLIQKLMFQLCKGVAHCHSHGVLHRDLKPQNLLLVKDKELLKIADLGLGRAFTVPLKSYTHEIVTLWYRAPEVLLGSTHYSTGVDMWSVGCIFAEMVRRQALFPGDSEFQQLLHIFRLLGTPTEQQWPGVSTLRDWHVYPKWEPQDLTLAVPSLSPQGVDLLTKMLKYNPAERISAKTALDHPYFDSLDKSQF", "experiment": "pull-down from cell extract on FL66-Sepharose, Western blot", "protocol": "The *Arabidopsis thaliana* CKI FL66 Associates Exclusively with CDC2aAt In Vitro Purified recombinant FL66 protein (prepared as described as in previous Example 6 was coupled to CNBr-activated Sepharose 4B (Pharmacia) at a concentration of 5 mg/ml of gel according to the manufacturer's instructions. Protein extracts were prepared from a 2-day-old cell suspension culture of *A. thaliana* Col-O in homogenisation buffer (HB) containing 50 mM Tris-HCl (pH 7.2), 60 mM β-glycerophosphate, 15 mM nitrophenyl phosphate, 15 mM EGTA, 15 mM MgCl_2, 2 mM dithiothreitol, 0.1 mM vanadate, 50 mM NaF, 20 µg/ml leupeptin, 20 µg/ml aprotinin, 20 µg/ml soybean trypsin inhibitor (SBTI), 100 µM benzamidine, 1 mM phenylmethylsulfonylfluoride, and 0.1% Triton X-100. Two-hundred µg protein extract in a total volume of 100 µl HB was loaded on 50 µl 50% (v/v) FL66-Sepharose or control Sepharose beads, and incubated on a rotating wheel for 2 h at 4° C. The unbound proteins were collected for later analysis. The beads-bound fractions were washed 3 times with HB. Beads were resuspended in 30 µl SDS-loading buffer and boiled. The supernatants (beads bound fractions) and 10 µl of the unbound fractions were separated on a 12.5% SDS-PAGE gel and electroblotted on nitrocellulose membrane (Hybond-C^+; Amersham). […]"}}}
{"binder": "B1", "values": [{"measurement": "binding result", "setting": "[1]", "result": "no binding"}]}
{"binder": "B2", "values": [{"measurement": "binding result", "setting": "[2]", "result": "binds"}, {"measurement": "binding result", "setting": "[3]", "result": "no binding"}]}
{"binder": "B3", "values": [{"measurement": "binding result", "setting": "[3]", "result": "no binding"}, {"measurement": "binding result", "setting": "[4]", "result": "no binding"}]}
{"binder": "B4", "values": [{"measurement": "binding result", "setting": "[3]", "result": "no binding"}, {"measurement": "binding result", "setting": "[4]", "result": "no binding"}]}
{"binder": "B5", "values": [{"measurement": "binding result", "setting": "[5]", "result": "no binding"}]}
{"binder": "B6", "values": [{"measurement": "binding result", "setting": "[3]", "result": "no binding"}]}
{"binder": "B7", "values": [{"measurement": "binding result", "setting": "[3]", "result": "no binding"}]}
